According to article PMC4631838, “Molecular architecture of the yeast Mediator complex” (eLife, 2015):

B1: Med21, Mediator Middle module subunit (natural protein, S. cerevisiae, UniProt P47822 1-140, looked up)
chain: MTDRLTQLQICLDQMTEQFCATLNYIDKNHGFERLTVNEPQMSDKHATVVPPEEFSNTIDELSTDIILKTRQINKLIDSLPGVDVSAEEQLRKIDMLQKKLVEVEDEKIEAIKKKEKLLRHVDSLIEDFVDGIANSKKST
notes: Med21 (printed old name Sbr7), S. cerevisiae, endogenous; also called Sbr7; source: endogenous, S. cerevisiae CB010 double-tagged strain; within the purified native holoenzyme
B2: Med7, Mediator Middle module subunit (natural protein, S. cerevisiae, UniProt Q08278 1-222, looked up)
chain: MSNDPGNEVSSLYPPPPPYVKFFTQSNLEKLPKYKEKKAASAKQTAPNNSNGGSEEEITCALDYLIPPPMPKNQQYRAFGSIWQVKDQLPDLESMGLTQLYKKSTENESTNYQYKIQELRKLLKSLLLNYLELIGVLSINPDMYERKVENIRTILVNIHHLLNEYRPHQSRESLIMLLEEQLEYKRGEIREIEQVCKQVHDKLTSIQDTLRTGSQSPPSSSQ
notes: Med7, S. cerevisiae, endogenous; source: endogenous, S. cerevisiae CB010 double-tagged strain; within the purified native holoenzyme
B3: Med9 (Cse2), Mediator Middle module subunit (natural protein, S. cerevisiae, UniProt P33308 1-149, looked up)
chain: MNLQNNVLNQIHQILLPTNPTLDKPNAEATKEEFSSAENRDEKDYLTNQQPKNLSTPSTSSNGEFIPHIFYSLHQIRKDPNNLSNQLETLTGSIRHRLKLCKSLISENEDTKDLLSKSPSEWQDIIHQREQELQIKRDVLDDLYRKLQR
notes: Med9 (Cse2), S. cerevisiae, endogenous; source: endogenous, S. cerevisiae CB010 double-tagged strain; within the purified native holoenzyme

Tests used:
Assay in all cases: cross-linking; BS3 (unlabeled, or 50:50 with 2H12-labeled BS3) on the purified native holoenzyme; 150 mM NaPO4, 150 mM KOAc, pH 7.5, 5% glycerol, 2 mM DTT; procedure A 2.7 mM reagent 120 min on ice; trypsin digest, LC-MS/MS, Protein Prospector
Conditions in all cases: both partners purified
[1] = biological target: T1, Med17 (Srb4), Mediator Head module subunit (S. cerevisiae, UniProt P32569 1-687)
T1 construct: Med17 (Srb4), S. cerevisiae, endogenous, residues 1-687 spoken of; cross-linking was done after cleavage; also called Med17p; source: endogenous, S. cerevisiae CB010 double-tagged strain; within the purified native holoenzyme; not shown: TAP, N-terminal, cleaved
T1 sequence (looked up): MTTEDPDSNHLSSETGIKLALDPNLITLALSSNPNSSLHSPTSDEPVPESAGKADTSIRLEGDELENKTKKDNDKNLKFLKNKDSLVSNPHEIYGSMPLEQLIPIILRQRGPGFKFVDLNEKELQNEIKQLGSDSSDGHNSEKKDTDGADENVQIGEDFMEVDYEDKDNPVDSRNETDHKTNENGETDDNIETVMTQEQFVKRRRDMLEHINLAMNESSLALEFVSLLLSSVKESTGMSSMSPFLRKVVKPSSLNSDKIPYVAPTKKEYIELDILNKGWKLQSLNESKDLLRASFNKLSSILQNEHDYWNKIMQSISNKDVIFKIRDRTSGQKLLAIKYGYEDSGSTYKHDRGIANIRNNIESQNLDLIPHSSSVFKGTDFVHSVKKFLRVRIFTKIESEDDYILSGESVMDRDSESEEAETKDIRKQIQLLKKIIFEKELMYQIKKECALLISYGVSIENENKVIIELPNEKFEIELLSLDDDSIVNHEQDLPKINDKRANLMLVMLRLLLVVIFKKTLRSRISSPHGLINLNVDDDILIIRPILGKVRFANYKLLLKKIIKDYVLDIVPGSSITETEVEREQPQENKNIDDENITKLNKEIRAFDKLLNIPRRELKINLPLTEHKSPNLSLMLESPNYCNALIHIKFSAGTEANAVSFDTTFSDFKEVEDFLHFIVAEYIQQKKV

[2] = biological target: T2, Med14 (Rgr1), Mediator subunit (S. cerevisiae, UniProt P19263 1-1082)
T2 construct: Med14 (Rgr1), S. cerevisiae, endogenous, residues 1-1082 spoken of; source: endogenous, S. cerevisiae CB010 double-tagged strain; within the purified native holoenzyme
T2 sequence (looked up): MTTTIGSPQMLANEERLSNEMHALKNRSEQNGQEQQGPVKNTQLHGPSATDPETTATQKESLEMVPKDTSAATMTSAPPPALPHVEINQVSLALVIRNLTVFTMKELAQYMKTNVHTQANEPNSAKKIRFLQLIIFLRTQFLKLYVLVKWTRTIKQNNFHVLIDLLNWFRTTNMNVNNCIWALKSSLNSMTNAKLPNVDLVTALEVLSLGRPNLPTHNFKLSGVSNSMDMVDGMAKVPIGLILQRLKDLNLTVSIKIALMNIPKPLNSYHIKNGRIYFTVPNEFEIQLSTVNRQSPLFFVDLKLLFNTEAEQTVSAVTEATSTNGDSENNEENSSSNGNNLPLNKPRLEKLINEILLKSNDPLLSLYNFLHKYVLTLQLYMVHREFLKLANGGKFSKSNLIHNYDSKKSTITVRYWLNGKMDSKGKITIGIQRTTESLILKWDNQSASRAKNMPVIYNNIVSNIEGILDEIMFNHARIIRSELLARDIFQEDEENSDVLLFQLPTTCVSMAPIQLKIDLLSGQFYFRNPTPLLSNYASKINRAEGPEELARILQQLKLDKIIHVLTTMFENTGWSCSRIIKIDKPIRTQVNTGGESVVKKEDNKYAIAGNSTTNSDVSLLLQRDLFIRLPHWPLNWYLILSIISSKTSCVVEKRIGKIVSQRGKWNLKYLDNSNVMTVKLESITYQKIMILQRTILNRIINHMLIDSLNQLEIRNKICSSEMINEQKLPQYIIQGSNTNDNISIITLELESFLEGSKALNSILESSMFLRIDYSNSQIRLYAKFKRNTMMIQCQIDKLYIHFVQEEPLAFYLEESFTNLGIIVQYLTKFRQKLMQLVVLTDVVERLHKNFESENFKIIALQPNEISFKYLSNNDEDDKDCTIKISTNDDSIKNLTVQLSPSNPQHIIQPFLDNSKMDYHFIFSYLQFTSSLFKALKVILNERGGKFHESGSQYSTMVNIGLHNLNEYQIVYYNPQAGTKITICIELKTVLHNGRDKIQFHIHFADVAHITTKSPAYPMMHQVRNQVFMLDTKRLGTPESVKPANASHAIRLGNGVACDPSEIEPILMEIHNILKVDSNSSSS

[3] = biological target: T3, Med1, Mediator Middle module subunit (S. cerevisiae, UniProt Q12321 1-566)
T3 construct: Med1, S. cerevisiae, endogenous; source: endogenous, S. cerevisiae CB010 double-tagged strain; within the purified native holoenzyme
T3 sequence (looked up): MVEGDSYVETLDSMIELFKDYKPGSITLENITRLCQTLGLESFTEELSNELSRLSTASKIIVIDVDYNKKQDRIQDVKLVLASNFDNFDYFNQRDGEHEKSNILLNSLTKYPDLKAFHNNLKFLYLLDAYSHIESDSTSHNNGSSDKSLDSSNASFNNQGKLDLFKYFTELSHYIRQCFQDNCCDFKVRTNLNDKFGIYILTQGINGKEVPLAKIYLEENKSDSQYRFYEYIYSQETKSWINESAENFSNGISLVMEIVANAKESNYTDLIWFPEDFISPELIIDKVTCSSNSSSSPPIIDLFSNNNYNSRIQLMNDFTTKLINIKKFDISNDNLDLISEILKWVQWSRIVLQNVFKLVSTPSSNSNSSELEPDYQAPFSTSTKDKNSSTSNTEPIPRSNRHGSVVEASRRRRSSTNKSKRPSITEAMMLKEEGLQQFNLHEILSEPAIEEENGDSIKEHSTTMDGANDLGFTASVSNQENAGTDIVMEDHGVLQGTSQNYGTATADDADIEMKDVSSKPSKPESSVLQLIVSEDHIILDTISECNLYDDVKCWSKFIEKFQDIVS

| Binder | binding result [1] | binding result [2] | binding result [3] |
| --- | --- | --- | --- |
| B1 | binds | binds | – |
| B2 | binds | – | – |
| B3 | – | binds | binds |
